Laboratory results from US8969026B2, “Polymeric reverse micelles as selective extraction agents and related methods of MALDI-MS analysis” (University of Massachusetts, priority 2007, dated 2015).

What was measured:
[1] = fluorescent pI markers, cited from earlier work; for Pka: second pKa column
[2] = Inverse micelle (polymer 1) extraction of a myoglobin tryptic digest at pH 7.1, MALDI-MS; format: physicochemical; conditions: myoglobin tryptic digest 1 μM, polymer 1 in toluene, K = Iorg/Iaq, [M+H]+, 3 replicates
Source text: All of the peptides with pI values above 7.1 are extracted effectively, and with only one exception, peptides with pI values below 7.1 are not extracted effectively. Among the peptide fragments tested, the only exception is the peptide N140-G153 (m/z 1553), a peptide fragment that has a pI below 7.1 and still has K>1. […] One of two reasons could explain the observed results: First, because the pH of the solution is so close to the pI of this peptide, a significant fraction of the peptide is positively-charged at pH 7.1 and therefore extracted. Alternatively, the theoretically calculated pI value may be low.
(§1) A typical biphasic extraction procedure involves mixing 200 μL of a toluene solution of homopolymer 1 or 2 (1×10^−4 M) with 1 mL of an aqueous solution of peptide(s) that was buffered to pH ˜7.0 with 50 mM Tris/TrisHCl. The mixture is vortexed for 10 to 120 minutes and centrifuged at 12000 rpm for 30-40 minutes to break the resulting emulsion and separate the organic and aqueous layers. The top (organic) layer is then recovered and dried to obtain a solid residue. The residue is redissolved into 10 μL of THF and sonicated for 10 seconds to promote solubilization. Finally, 20 μL of an α-CHCA matrix solution (0.16 Min 60:40:0.3% THF:H2O:TFA) are added to the sample for a final volume of 30 μL. For MALDI-MS analysis the samples are applied to the target using the dried-droplet method, where 1 μL of the sample/matrix mixture is spotted on a stainless-steel target, and the solvent is evaporated at room temperature. The residual aqueous phase (˜1 mL) after extraction is also examined by MALDI-MS. Equal amounts (5 μL) of the aqueous phase and the matrix solution (0.16 M α-CHCA in 60:40:0.3% THF:H2O:TFA) are mixed, and 1 μL of the resulting solution is spotted, using the dried droplet method, on a stainless-steel target for MALDI-MS analysis.
Extraction of the myoglobin digest was done in a manner similar to described above. 1 mL aliquots of a 1×10^−6 M protein digest were buffered at pH 7.1 with 50 mM TRIS, mixed with 200 μL of a toluene solution of homopolymer 1 (1×10^−4 M), extracted, and analyzed by MALDI-MS as detailed above.
Proteolytic digestion. For the myoglobin tryptic digests, 110 μl of protein solution (˜3×10^−4 M in 50 mM TRIS buffer) were mixed with 40 μL of MeOH. The mixture was heated at 60° C. for 10 minutes to denature the protein. 150 μL of a trypsin solution, which contained 2 μg/450 μL of protein, 50 mM TRIS buffer, and 1 mM CaCl2, was added to the denatured protein sample, and the mixture was left to digest at 37° C. for 24 hours. The digestion was stopped by filtering the solution through a 10K MWCO Centricon filter. The filtrates were diluted to the desired concentration and used for extraction and analysis.

[3] = pH-dependent biphasic extraction of a peptide mixture with inverse micelles of polymer 1 in toluene, MALDI-MS ion abundance ratio; format: physicochemical; conditions: polymer 1 inverse micelles in toluene, K = Iorg/Iaq, [M+H]+ signal, [M+K]+ for spinorphin and β-amyloid, at least 4 replicates; for Ion abundance ratio (K ± sM) pH 4.0: aqueous pH 4.0; for Ion abundance ratio (K ± sM) pH 7.1: aqueous pH 7.1; for Ion abundance ratio (K ± sM) pH 9.0: aqueous pH 9.0
Source text: The net charge within the inverse micelle of 1 is negative, affording a selective extraction of positively-charged peptides. In a typical experiment, a toluene solution containing 1 was mixed with an aqueous solution containing a mixture of peptides. After vortexing this mixture, the organic layer was separated and analyzed using MALDI-MS. […] Because the aqueous solution was buffered at a pH of 7.1, peptides with pI values above 7.1 were expected to be sequestered into the interior of the inverse micelles, while peptides with pI values below 7.1 would be mostly excluded based on Coulombic repulsion.
The ion abundance ratio is related to the extraction capacity of the polymer, and can be defined as the ratio of the MALDI ion abundance of the peptide in the organic phase that contains the inverse micelles (Iorg) to the ion abundance of the peptide remaining in the aqueous phase (Iaq) (K=Iorg/Iaq). These experiments were performed with the hypothesis that the extraction would be based on electrostatic interaction between the polymer and the peptide. To test this premise further, two control experiments were carried out. […] Therefore, a two-phase extraction experiment was done in the absence of homopolymer 1, and no peptide extraction into the organic phase was observed. Second, peptide extractions using a polymer without the negatively-charged functionality were performed. Polymer 2 contains charge-neutral pentaethyleneglycol functionalities instead of the carboxylic acid moieties. […] These two results are consistent with the hypothesis that the extraction is based on electrostatics.
Without limitation to any one theory or mode of operation, the pH of the overall aqueous solution is also likely to dictate the pH of the hydrated interiors of the inverse micelle where the binding takes place. Accordingly, extractions at three different pHs: 4.0, 7.1, and 9.0 were carried out; the results of these experiments are listed in Table 1. […] The results from experiments at pH 7.1 and 9.0 further support this idea. It should be noted that when the experiment is carried out at pH 9.0, the peptide with a pI of 7.7 is extracted to some extent. Such a result could be attributed to errors associated with aqueous solution pH measuring or to errors in the peptide pI calculation. Nonetheless, the tunability is still significant and therefore is a very useful result.
A Bruker Reflex III time-of-flight mass spectrometer was used to perform MALDI-MS analysis. The mass spectrometer is equipped with a 337-nm nitrogen laser, a 1.0 m flight tube, and a stainless steel sample target. All mass spectra were acquired in reflectron mode using a voltage of 16 kV. All reported spectra represent an average of 70 shots acquired at 30% laser power. The accelerating voltage was set to 20 kV.
as §1, with “Equal amounts (5 μL) of the aqueous phase and the matrix solution (0.16 M α-CHCA in 60:40:0.3% THF:H2O:TFA) are mixed, and 1 μL of the resulting solution is spotted, using the dried droplet method, on a stainless-steel target for MALDI-MS analysis.” left out

Nc1ccccc1C(=O)NCCCCCC(=O)O [pI marker 3]
pI [1]: 4.0

O=C(NCCN1CCOCC1)c1cc2ccccc2c(Br)c1O [pI marker 5]
Pka1 [1]: 5.35 | pI [1]: 6.2 | Pka [1]: 6.95

O=C(NCCN1CCOCC1)c1cc2ccccc2cc1O [pI marker 6]
Pka1 [1]: 6.20 | pI [1]: 7.2 | Pka [1]: 8.10

NCCCN1CCN(CCCNC(=O)c2cc3ccccc3cc2O)CC1 [pI marker 8]
Pka1 [1]: 8.05 | pI [1]: 9.0 | Pka [1]: 9.85

NCCCCCCNCCCCCCNC(=O)c1cc2ccccc2cc1O [pI marker 9]
Pka1 [1]: 9.95 | pI [1]: 10.3 | Pka [1]: 10.65

ALELFRNDIAAK [tryptic fragment of equine myoglobin]
Ion abundance ratio (K ± sM) [2]: 0.7 ± 0.1

ASEDLKKHGTVVLTALGGILK (listed as Equus caballus) [tryptic fragment of equine myoglobin]
Ion abundance ratio (K ± sM) [2]: 36 ± 4

GHHEAELKPLAQSHATK (listed as Equus caballus) [tryptic fragment of equine myoglobin]
Ion abundance ratio (K ± sM) [2]: 425 ± 61

GLSDGEWQQVLNVWGK (listed as Equus caballus) [tryptic fragment of equine myoglobin]
Ion abundance ratio (K ± sM) [2]: 0.3 ± 0.1

HGTVVLTALGGILK (listed as Equus caballus) [tryptic fragment of equine myoglobin]
Ion abundance ratio (K ± sM) [2]: 32 ± 5

HGTVVLTALGGILKK (listed as Equus caballus) [tryptic fragment of equine myoglobin]
Ion abundance ratio (K ± sM) [2]: 51 ± 10

HPGDFGADAQGAMTK (listed as Equus caballus) [tryptic fragment of equine myoglobin]
Ion abundance ratio (K ± sM) [2]: 0.05 ± 0.004

IARRHPYFL (listed as Homo sapiens) [Kinetensin, human peptide purchased from American Peptide Company]
Ion abundance ratio (K ± sM) pH 4.0 [3]: 337 ± 79 | Ion abundance ratio (K ± sM) pH 7.1 [3]: 882 ± 212 | Ion abundance ratio (K ± sM) pH 9.0 [3]: 616 ± 198

KGHHEAELKPLAQSHATK (listed as Equus caballus) [tryptic fragment of equine myoglobin]
Ion abundance ratio (K ± sM) [2]: 310 ± 0.2

KHGTVVLTALGGILK (listed as Equus caballus) [tryptic fragment of equine myoglobin]
Ion abundance ratio (K ± sM) [2]: 51 ± 10

KKGHHEAELKPLAQSHATK (listed as Equus caballus) [tryptic fragment of equine myoglobin]
Ion abundance ratio (K ± sM) [2]: 140 ± 12

LFTGHPETLEK (listed as Equus caballus) [tryptic fragment of equine myoglobin]
Ion abundance ratio (K ± sM) [2]: 0.02 ± 0.02

LFTGHPETLEKFDKFK (listed as Equus caballus) [tryptic fragment of equine myoglobin]
Ion abundance ratio (K ± sM) [2]: 41 ± 6

NDIAAKYKELGFQG (NDLAAKYKELGFQG; listed as Equus caballus) [tryptic fragment of equine myoglobin]
Ion abundance ratio (K ± sM) [2]: 1.4 ± 0.4 | Ion abundance ratio (K ± sM) ([2]; listed as N140-G153): 1.4

S YSMEHFRWGKPV [ACTH Human]
Ion abundance ratio (K ± sM) pH 4.0 [3]: 221 ± 37 | Ion abundance ratio (K ± sM) pH 7.1 [3]: 422 ± 87 | Ion abundance ratio (K ± sM) pH 9.0 [3]: 128 ± 41

VEADIAGHGQEVLIR (listed as Equus caballus) [tryptic fragment of equine myoglobin]
Ion abundance ratio (K ± sM) [2]: 0.3 ± 0.04

YKELGFQG (listed as Equus caballus) [tryptic fragment of equine myoglobin]
Ion abundance ratio (K ± sM) [2]: 0.01 ± 0.001

YLEFISDAIIHVLHSK (listed as Equus caballus) [tryptic fragment of equine myoglobin]
Ion abundance ratio (K ± sM) [2]: 0.0
